The values below come from patent US5541071 (New England Medical Center Hospitals, Inc., dated 1996).

Experiment [1] concerns the target T1, canine parietal cell gastrin receptor (recombinant, expressed from clone GR-1 in COS-7 cells) (canine).
T1 chain: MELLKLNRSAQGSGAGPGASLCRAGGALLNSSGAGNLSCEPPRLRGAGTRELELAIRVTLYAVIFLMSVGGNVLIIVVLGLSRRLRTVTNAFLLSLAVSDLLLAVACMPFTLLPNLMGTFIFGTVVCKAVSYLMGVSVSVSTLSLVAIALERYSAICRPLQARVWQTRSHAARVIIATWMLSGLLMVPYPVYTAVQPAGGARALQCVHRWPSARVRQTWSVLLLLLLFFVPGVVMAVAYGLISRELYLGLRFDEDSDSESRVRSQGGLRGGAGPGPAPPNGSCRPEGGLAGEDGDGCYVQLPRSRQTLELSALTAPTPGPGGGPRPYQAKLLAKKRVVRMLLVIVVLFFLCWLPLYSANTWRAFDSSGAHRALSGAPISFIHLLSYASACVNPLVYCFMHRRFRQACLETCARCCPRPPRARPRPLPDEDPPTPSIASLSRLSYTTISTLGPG
In words: competition with 125I-CCK-8 on isolated membranes of GR-1 transfected COS-7 cells, filtration.
Experimental: Binding parameters were also measured in isolated plasma membranes from COS-7 cells transfected with GR-1. Binding was performed for 60 min at 22° C.

The target of experiment [2] is T1, canine parietal cell gastrin receptor …. Put plainly: competition with 40 pM 125I-CCK-8 on intact GR-1 transfected COS-7 cells.
Experimental: (§1) COS-7 cells (1.5 ×10^6) were plated in 10 cm culture dishes (Nunc) and grown in DMEM/10% fetal calf serum, 5% CO_2 at 37° C. […] Twenty-four hours following transfection, cells were split into 24-well dishes (Nunc), 5000 cells/well. […] Equilibrium binding occurred after incubation for 80 min at 37° C. Cell monolayers were subsequently washed three times and bound radioactivity was quantified after cell hydrolysis in 1N NaOH.
In experiment [3] the target is canine parietal cell gastrin receptor (recombinant, expressed from clone GR-1 in COS-7 cells) (canine).
For experiment [4] the target is unchanged. This is another data set of the same source.
The target in experiment [5] is T1, canine parietal cell gastrin receptor …. Put plainly: radioligand saturation binding, 2.5 to 1,000 pM 125I-CCK-8, GR-1 transfected COS-7 cells.
Experimental: as §1

Square brackets hold non-standard residues; d marks the D form. Ends that are not written are not given here. sY = N[C@@H](Cc1ccc(OS(=O)(=O)O)cc1)C(=O)O

By IC50 is commonly meant the point on the concentration scale where inhibition reaches its midpoint. For QGPWLEEEEEAYGWMDF-NH2 (ends and bridges not checked) [gastrin I], the results for the IC50 in experiment [1] and in experiment [2] were 0.4 nM and 0.26 nM, respectively. Further, the phosphoinositide metabolites (Ins-1,4,5-P3, Ins-1,3,4,5-P4) by HPLC (% over control) in experiment [3] was 741. Further, the free cytosolic calcium, [Ca2+] (fura-2 fluorescence) in experiment [4] was determined as 142 nM.
Take D[sY]MGWMDF-NH2 [CCK-8 (unlabeled)]: the IC50 worked out at 0.08 nM in experiment [1] and 0.09 nM in experiment [2].
Regarding DYMGWMDF-NH2 [CCK-8-desulfate], in experiment [1], the IC50 worked out at 1.5 nM.
A word on the Kd: it is the concentration at which binding is half-saturated. For the molecule DYMGWMDF (ends and bridges not checked; also: 125I label, site not given here) [125I-CCK-8], in experiment [5], the equilibrium dissociation constant (Kd) is 0.08 nM.
